One series addresses T1, AORAa (Aromatoleum aromaticum, UniProt Q5P143).
T1 construct: gene aorB; native heterohexamer α2β2γ2, ca. 280 kDa (subunits 66, 46, 17 kDa), purified from phenylalanine-grown Δpdh cells, no tag; with Iron-sulfur protein, aldehyde oxidoreductase small subunit AorA
In words: flavin fluorescence of supernatant of heat-denatured enzyme, phosphodiesterase treatment. In kind it is binding. Particulars: co-purified cofactor; site AorC (predicted).

The subject of series [1] is c1ccc(C[n+]2ccc(-c3cc[n+](Cc4ccccc4)cc3)cc2)cc1. Description: purified protein. Particulars: artificial electron acceptor, phenylacetaldehyde as co-substrate, 100 mM Tris-HCl pH 8.0, 28°C, probably reacts at an Fe-S cluster.
Substrate in series [2]: NC(=O)c1ccc[n+]([C@@H]2O[C@H](COP(=O)(O)OP(=O)(O)OC[C@H]3O[C@@H](n4cnc5c(N)ncnc54)[C@H](O)[C@@H]3O)[C@@H](O)[C@H]2O)c1
Description: purified protein. Type of series: biochemical, Aromatoleum aromaticum. As to conditions: electron acceptor, phenylacetaldehyde as co-substrate, 100 mM Tris-HCl pH 8.0, 28°C, site AorC (FAD, predicted).

Substrate in series [3]: CC=O
Description: purified protein. As to conditions: electron acceptor benzyl viologen, 100 mM Tris-HCl pH 8.0, 28°C, site AorB (W-cofactor, predicted).

Substrate in series [4]: O=CCc1ccccc1
Description: purified protein. Particulars: electron acceptor benzyl viologen, 100 mM Tris-HCl pH 8.0, 28°C, site AorB (W-cofactor, predicted).

Substrate in series [5]: O=Cc1ccccc1
In words: purified protein. Particulars: electron acceptor benzyl viologen, 100 mM Tris-HCl pH 8.0, 28°C, site AorB (W-cofactor, predicted).

Series [6] addresses T2, AorB, large W-cofactor binding subunit of aldehyde oxidoreductase AORAa from Aromatoleum aromaticum EbN1 (Aromatoleum aromaticum EbN1, UniProt Q5P143 1-616).
T2 construct: AorB, large subunit (66 kDa on SDS-PAGE) of the tungsten-containing aldehyde oxidoreductase of Aromatoleum aromaticum EbN1; also called large subunit; aorB gene product; source: purified from A. aromaticum EbN1 strain SR7Δpdh as part of AORAa (DEAE-sepharose, hydroxyapatite, Superdex 200)
T2 sequence (looked up): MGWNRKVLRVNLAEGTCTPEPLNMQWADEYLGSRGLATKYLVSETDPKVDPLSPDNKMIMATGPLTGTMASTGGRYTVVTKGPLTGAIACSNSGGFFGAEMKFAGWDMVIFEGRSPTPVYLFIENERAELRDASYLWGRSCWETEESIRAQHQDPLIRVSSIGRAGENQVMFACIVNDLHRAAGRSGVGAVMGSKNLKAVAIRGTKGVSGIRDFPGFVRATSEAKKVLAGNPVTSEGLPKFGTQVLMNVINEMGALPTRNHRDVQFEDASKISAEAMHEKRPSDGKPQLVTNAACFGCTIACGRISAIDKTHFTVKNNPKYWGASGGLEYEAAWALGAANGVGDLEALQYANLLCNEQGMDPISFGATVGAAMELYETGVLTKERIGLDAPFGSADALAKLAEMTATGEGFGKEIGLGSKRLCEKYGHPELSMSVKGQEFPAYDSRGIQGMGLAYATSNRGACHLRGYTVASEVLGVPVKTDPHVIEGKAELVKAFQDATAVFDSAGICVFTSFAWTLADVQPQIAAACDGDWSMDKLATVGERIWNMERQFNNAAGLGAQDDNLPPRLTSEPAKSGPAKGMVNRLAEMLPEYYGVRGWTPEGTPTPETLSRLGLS
In words: co-purification by enzyme activity (DEAE-sepharose, hydroxyapatite, Superdex 200 gel filtration); endogenous enzyme purified from cell extract under anoxic conditions, followed by AOR activity; subunits separated by SDS-PAGE and identified by MALDI-TOF of tryptic fragments. As to conditions: partners not purified. A general note: SEC sorts molecules by how far they enter the pores of the column.

The values below come from paper PMC6365974, “Characterization of an Aldehyde Oxidoreductase From the Mesophilic Bacterium Aromatoleum aromaticum EbN1, a Member of a New Subfamily of Tungsten-Containing Enzymes” (Frontiers in Microbiology, 2019).

The Km is the concentration of substrate that gives half-maximal velocity. For orientation: Vmax means the rate approached at saturating substrate. Broadly, the kcat is the number of substrate molecules converted per active site and unit of time at saturation. In general, kcat/Km refers to the turnover number divided by the Michaelis constant.

On to `Cc1cc2nc3c(=O)[nH]c(=O)nc-3n(C[C@H](O)[C@H](O)[C@H](O)COP(=O)(O)OP(=O)(O)OC[C@H]3O[C@@H](n4cnc5c(N)ncnc54)[C@H](O)[C@@H]3O)c2cc1C` [FAD], for which the “flavin fluorescence of supernatant of heat-denatured enzyme, phosphodiesterase t” value on AORAa is “The presence of FAD in AORAa was confirmed by fluorescence spectroscopy”.
Regarding AORAa (Aromatoleum aromaticum EbN1), in series [1], the Michaelis-Menten constant (Km) stood at 23 µM, the Vmax was determined as 21.2 µmol/min/mg, the turnover number (kcat) stood at 91 s⁻¹ and the kcat/Km turned out to be 3.96e+06 M⁻¹ s⁻¹.

B1: AORAa (Aromatoleum aromaticum EbN1) (protein)
chain: T2 sequence (looked up)
Take B1: in the series “purified protein [2]”, the Km was 63 µM, the Vmax was 12.5 µmol/min/mg, the catalytic constant (kcat) is 54 s⁻¹ and the kcat/Km is 860000 M⁻¹ s⁻¹. Further, in “purified protein [3]”, the Km was 141 µM, the Vmax is 23.8 µmol/min/mg, the kcat was 103 s⁻¹ and the specificity constant (kcat/Km) was 730000 M⁻¹ s⁻¹. In “purified protein [4]”, the Michaelis constant (Km) is 82 µM, the Vmax is 18.9 µmol/min/mg, the catalytic constant (kcat) is 81 s⁻¹ and the specificity constant (kcat/Km) was 990000 M⁻¹ s⁻¹. In addition, in the series “purified protein [5]”, the Km is 67 µM, the Vmax is 21.4 µmol/min/mg, the kcat is 92 s⁻¹ and the kcat/Km is 1.38e+06 M⁻¹ s⁻¹.

B2: AorA, small subunit of aldehyde oxidoreductase AORAa from Aromatoleum aromaticum EbN1 (natural protein, UniProt Q5P144 1-158, looked up)
chain: MWKSLHIDPAKCTGCLQCEMACSYEHTGVINPSKSRIKVFSFEHEGRKVPYTCTQCTEAWCLHSCPVDAIRLDLTTGAKMVFEDTCVGCKVCTIACPFGTINYNQDTGKVQKCDLCEGDPACAKACPTAAITYIDADWTGLARMQAWAAKANTPASAA
notes: AorA, small subunit (17 kDa on SDS-PAGE) of the tungsten-containing aldehyde oxidoreductase of Aromatoleum aromaticum EbN1; predicted to contain four [Fe4S4] clusters; also called electron transfer subunit; aorA gene product; source: purified from A. aromaticum EbN1 strain SR7Δpdh as part of AORAa (DEAE-sepharose, hydroxyapatite, Superdex 200)
As to B2, in series [6], the binding result was “binds”.

B3: AorC, medium FAD-containing subunit of aldehyde oxidoreductase AORAa from Aromatoleum aromaticum EbN1 (natural protein, UniProt Q5P142 1-424, looked up)
chain: MKHVILGNGPAGVIAAETLRRAAPTDDILLFGSEDAPPYSRMAIPYLLEGNIDESGTWLRKSPGHFDRLRIHEMRGRAVSLDSERRRILFDDGHFESWDRLLIATGSHPVRPPIPGIDLPEVQTCWTLEDARAIARFATPGARVLQLGAGFIGCIIMEALAARGVELTVVEMGDRMVPRMMTPTAGGMIRKWVEDQGVRVVTNAGVSRIDCRASNDAPLDVTLSTGEVVVADLVIVAAGVAPNIAFLEATPVHVAKGVLVDDRLQTSVPGIFAAGDVAEAPDLFTGAHLVAAIQPNAADQARVAALNMAGHEARLKGVLAINVLDTLGLISSSFGQWWGEERERGGAGVEHVDEAAYRYLSLQFKDDVLIGATSIGLTEHVGALRGLIHGRVRLGEWKERLLHSPLQFVDAYIARSQQPMALVR
notes: AorC, medium-sized subunit (46 kDa on SDS-PAGE) of the tungsten-containing aldehyde oxidoreductase of Aromatoleum aromaticum EbN1; predicted FAD-containing; also called medium subunit; medium-sized subunit; source: purified from A. aromaticum EbN1 strain SR7Δpdh as part of AORAa (DEAE-sepharose, hydroxyapatite, Superdex 200)
Take B3: in series [6], the binding result is listed as “binds”.
